Assays:
SaOS2 cells [1] = experiment: Inflammatory stimuli (IL1β, LPS) on SaOS2 differentiated with ACM, RT-PCR; type: cell-based, Human
Experimental: To determine the effect of an external inflammatory factor on the differentiation process of SaOS2 stimulated with ACM, SaOS2 cells were seeded and stimulated with the ACM in the presence and absence of 0.1 ng/ml of IL1 and 100 ng/mL of lipopolysaccharide (LPS). To do this, once the SaOS2 completed the 3-day differentiation with the ACM, these cells were treated with the inflammatory stimuli and were differentiated for a further 48h.
(§1) RNA was extracted using TriReagent® and the RNA extraction Kit E.Z.N.A. Total RNA Kit I® (Omega Bio-Tek Inc., Norcross, GA, USA) following the manufacturer's instructions. The gene expression of bone related markers, inflammatory and adipogenic markers were measured using iTaq Universal SYBR Green Supermix (BioRad Laboratories, Hercules, CA, USA). Relative quantitation was performed using the ΔΔCt Comparative Method. Results are expressed as 2^−ΔΔCt versus unstimulated control or DM.

SaOS2 cells [2] = experiment: SaOS2 differentiation into osteoblasts, gene expression by RT-PCR; type: cell-based, Human; details: SaOS2 differentiated into osteoblasts three days, presence or absence of stimulus (ACM; TGFβi 3 μg/mL)
Experimental: (§2) SaOS2 were differentiated for 3 days, C3H10T1/2 for 7 days, and ATDC5 for 14 days. In order to induce cell differentiation, the media were changed three times a week in SaOS2 and ATDC5 cells, starting the process 24 h post-culture. In these cells, the same medium was used in all the changes made. Regarding the C3H10T1/2, two media were used to differentiate them into adipocytes: the induction medium which was changed after 6 h post-culture, and the maintenance medium which replaced the induction medium after 4 days. after culture. All cells were seeded in 24-well plates (Thermo Fisher Scientific, Waltham, MA, USA).
After 24 h SaOS2 post-culture, the medium was changed to ACM, and they were differentiated for 3 days.
(§3) SaOS2, C3H10T1/2, and ATDC5 cells were differentiated in the presence or absence of 3 μg/mL of human recombinant protein transforming growth factor beta-induced (TGFβi), similar concentration to TGFβi-blood levels. It should be noted that this protein was added newly in every medium change corresponding to the differentiation of each cell line.
as §1

C3H10T1/2 cells [3] = experiment: C3H10T1/2 differentiation into adipocytes, gene expression by RT-PCR; type: cell-based; details: C3H10T1/2 differentiated into adipocytes seven days
Experimental: as §2
Regarding the C3H10T1/2, due to the difference in the composition of their differentiation media and that of the SaOS2, we proceeded with the concentration and purification of the 2 mL DM and ACM proteins, using the filter units 3 kDa Amicon® Ultra-0.5 mL Centrifugal Filters Ultracel 3K (Millipore, Burlington, Massachusetts, USA) following the supplier's instructions. Once the process was finished, the pellets were resuspended in the differentiation medium corresponding to the cell line, filtered through a 0.2 μm filter (Thermo Fisher Scientific, Wlatham, MA, USA), and cells were differentiated for 7 days as was previously described. For cell differentiation stimulated with the NCM, NCM was concentrated using Amicon® Ultra-0.5 mL Centrifugal Filters Ultracel 3K 3 kDa centrifugal filter units, according to the supplier's specifications. Then, they were resuspended with the C3H10T1/2 differentiation medium and filtered through a 0.2 μm filter. Finally, C3H10T1/2 cells were differentiated into adipocytes in the presence and absence of NCM for 7 days, as previously described.
as §3, §1

C3H10T1/2 cells [4] = experiment: RNA quantification and cell counting; type: cell-based; details: C3H10T1/2 differentiated to adipocytes seven days, TGFβi 3 μg/mL
Text: The RNA of the differentiated C3H10T1/2 was quantified using a NanoDrop One® spectrophotometer (Thermo Fisher Scientific, Wlatham, MA, USA).
Moreover, microscopic photos of the different conditions were taken. Subsequently, the photograph was divided into 3 rectangles of equal size and positioned in the same place in the images. The live cells were counted, and the number of cells was compared with the rest of the samples.

ATDC5 cells = experiment: ATDC5 differentiation into chondrocytes, gene expression by RT-PCR; type: cell-based; details: TGFβi 3 μg/mL
Experimental: as §2, §3, §1

[5] = SaOS2 differentiated three days with ACM, then IL1β 0.1 ng/mL for 48h
[6] = presence or absence of stimulus (ACM; NCM; TGFβi 3 μg/mL)
[7] = ATDC5 differentiated into chondrocytes three, seven, fourteen days

In the case of lipopolysaccharide [LPS], the “inflammatory profile or bone metabolism” value (SaOS2 cells [1]; SaOS2 differentiated three days with or without ACM, then LPS 100 ng/ml for 48h) is reported as “did not alter”.

IL1β: inflammatory stimulus, 0.1 ng/ml was tested, and the “BMP2 gene expression induced by ACM” value (SaOS2 cells [1]; [5]) was “increased”, the CCL2 gene expression (SaOS2 cells [1]; [5]) was “increased” and the IL6 gene expression (SaOS2 cells [1]; [5]) was “increased”. For the same molecule, the “LIF gene expression induced by ACM” value (SaOS2 cells [1]; [5]) was “increased”, the SPP1 gene expression (SaOS2 cells [1]; [5]) was “did not modify” and the VCAM gene expression (SaOS2 cells [1]; [5]) was “increased”.

B1: TGFβi: human recombinant protein transforming growth factor beta-induced, used at 3 μg/mL (protein)
chain: GPAKSPYQLVLQHSRLRGRQHGPNVCAVQKVIGTNRKYFTNCKQWYQRKICGKSTVISYECCPGYEKVPGEKGCPAALPLSNLYETLGVVGSTTTQLYTDRTEKLRPEMEGPGSFTIFAPSNEAWASLPAEVLDSLVSNVNIELLNALRYHMVGRRVLTDELKHGMTLTSMYQNSNIQIHHYPNGIVTVNCARLLKADHHATNGVVHLIDKVISTITNNIQQIIEIEDTFETLRAAVAASGLNTMLEGNGQYTLLAPTNEAFEKIPSETLNRILGDPEALRDLLNNHILKSAMCAEAIVAGLSVETLEGTTLEVGCSGDMLTINGKAIISNKDILATNGVIHYIDELLIPDSAKTLFELAAESDVSTAIDLFRQAGLGNHLSGSERLTLLAPLNSVFKDGTPPIDAHTRNLLRNHIIKDQLASKYLYHGQTLETLGGKKLRVFVYRNSLCIENSCIAAHDKRGRYGTLFTMDRVLTPPMGTVMDVLKGDNRFSMLVAAIQSAGLTETLNREGVYTVFAPTNEAFRALPPRERSRLLGDAKELANILKYHIGDEILVSGGIGALVRLKSLQGDKLEVSLKNNVVSVNKEPVAEPDIMATNGVVHVITNVLQPPANRPQERGDELADSALEIFKQASAFSRASQRSVRLAPVYQKLLERMKH
In the case of B1, the AXIN2 gene expression (SaOS2 cells [2]) is reported as “did not modify”, the BMP2 gene expression (SaOS2 cells [2]) is reported as “increased” and the BMP4 gene expression (SaOS2 cells [2]) is reported as “did not modify”. The CCL2 gene expression (SaOS2 cells [2]) was “increased”, the CD44 gene expression (SaOS2 cells [2]) was “did not modify” and the GPNMB gene expression (SaOS2 cells [2]) was “did not modify”. For the same molecule, the LIF gene expression (SaOS2 cells [2]) was “did not modify”, the OPG gene expression (SaOS2 cells [2]) was “did not modify” and the PDGFRβ gene expression (SaOS2 cells [2]) was “did not modify”. The PDGFβ gene expression (SaOS2 cells [2]) was “did not modify”, the RANKL gene expression (SaOS2 cells [2]) was “did not modify” and the RANKL/OPG ratio (SaOS2 cells [2]) was “did not modify”. The RUNX2 gene expression (SaOS2 cells [2]) was “did not modify”, the SPP1 gene expression (SaOS2 cells [2]) was “increased” and the TGFβi gene expression (SaOS2 cells [2]) was “increased”. For the same molecule, the VCAM gene expression (SaOS2 cells [2]) was “increased”, the BMP2 gene expression (SaOS2 cells [2]; listed as TGFBi recombinant) was “partial recapitulation” and the CCL2 gene expression (SaOS2 cells [2]; listed as TGFBi recombinant) was “partial recapitulation”. For the same molecule, the SPP1 gene expression (SaOS2 cells [2]; listed as TGFBi recombinant) was “partial recapitulation”, the VCAM gene expression (SaOS2 cells [2]; listed as TGFBi recombinant) was “partial recapitulation” and the ADIPOQ gene expression (C3H10T1/2 cells [3]; [6]) was “reduced”. For the same molecule, the AXIN2 gene expression (C3H10T1/2 cells [3]; [6]) was “no modifications”, the CCL2 gene expression (C3H10T1/2 cells [3]; [6]) was “no modifications” and the CD44 gene expression (C3H10T1/2 cells [3]; [6]) was “increase”. The FABP4 gene expression (C3H10T1/2 cells [3]; [6]) was “reduced”, the GPNMB gene expression (C3H10T1/2 cells [3]; [6]) was “no modifications” and the IL6 gene expression (C3H10T1/2 cells [3]; [6]) was “no modifications”. The PLIN2 gene expression (C3H10T1/2 cells [3]; [6]) was “reduced”, the PPARG gene expression (C3H10T1/2 cells [3]; [6]) was “reduction was statistically significant” and the RUNX2 gene expression (C3H10T1/2 cells [3]; [6]) was “increase”. For the same molecule, the SPP1 gene expression (C3H10T1/2 cells [3]; [6]) was “increase”, the VCAM gene expression (C3H10T1/2 cells [3]; [6]) was “increase” and the PPARG gene expression (C3H10T1/2 cells [3]; presence or absence of stimulus (ACM; NCM; TGFβi 3 μg/mL), listed as TGFBi) was “significantly decreased”. The TGFβi gene expression (C3H10T1/2 cells [3]; presence or absence of stimulus (ACM; TGFβi 3 μg/mL)) was “increase”, the “cell proliferation: amount of RNA” value (C3H10T1/2 cells [4]) was “increase” and the “cell proliferation: number of cells” value (C3H10T1/2 cells [4]) was “increase”. The “cell proliferation: amount of RNA” value (C3H10T1/2 cells [4]; listed as TGFBi) was “differences on cell proliferation were observed”, the “cell proliferation: number of cells” value (C3H10T1/2 cells [4]; listed as TGFBi) was “differences on cell proliferation were observed” and the COL2A1 gene expression (ATDC5 cells; [7]) was “decrease”. The COLX gene expression (ATDC5 cells; [7]) was “decrease”, the SOX9 gene expression (ATDC5 cells; [7]) was “decrease” and the SPP1 expression (ATDC5 cells; early stages of ATDC5 differentiation) was “increased”.

Reference: patent US20260227386A1, “DIAGNOSIS AND TREATMENT OF NEUROGENIC HETEROTOPIC OSSIFICATION” (SERVIZO GALEGO DE SAÚDE, priority 2023, published 2026)
